According to the supplement of paper PMC12042874:
± gives the uncertainty stated by the source.

Assay: amyloid nucleation score (Sup35N fusion, yeast selection) (log enrichment); library NNK2; higher = more nucleation; inactive = no reads after selection
In short: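 The nucleation score, computed with DiMSum, is the log enrichment of output over input reads, centred on the mode score of non-aggregating sequences. Sequences with under 100 input reads were dropped. Reads were generated by Illumina sequencing of plasmid inserts from psi-negative yeast with Sup35N fused to peptides of 20 random codons, induced with 100 μM copper sulfate for 24 hours and grown 7 days at 30°C on medium lacking adenine and uracil.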
In the case of RMLSRSRWLTI, the amyloid nucleation score is reported as -0.169 ± 0.34. In the case of RMLYVFSFTHNKVVIFARTE, the amyloid nucleation score is reported as -1.11 ± 0.76. RMRFYWWDVSMLYTCSYSDF gave an amyloid nucleation score of 1.04 ± 0.11. For RMVSYY, the amyloid nucleation score was -0.474 ± 0.56. In the case of RNGFAIRITANHYTQLVYDL, the amyloid nucleation score is reported as 3.82 ± 0.094. Substance RNHRRSWMPSFRTKLNGGWF has an amyloid nucleation score of 3.58 ± 0.14. In the case of RNIIFTWGLCC, the amyloid nucleation score is reported as 5.913 ± 0.035. For RNSIYCTND, the amyloid nucleation score was -0.679 ± 0.47. In the case of RNSSL, the amyloid nucleation score is reported as 0.495 ± 0.48. RNVSNRPNAQIRKSVRCCWG gave an amyloid nucleation score of 0.388 ± 0.42. RPGYNQMDFDWRLLIDVFDG gave an amyloid nucleation score of -0.133 ± 1. RPLPSFPNNRSERSNTSF showed an amyloid nucleation score of 0.851 ± 0.57. In the case of RPLSAEACPYVCTVSWDGLW, the amyloid nucleation score is reported as 1.02 ± 0.14. With RPWLVY the amyloid nucleation score was 0.026 ± 1.1. With RQSFVVDNNELCKFTCDYSC the amyloid nucleation score was 7.376 ± 0.043. For RQSNPR, the amyloid nucleation score was 1.53 ± 0.31. RQTSLKRL showed an amyloid nucleation score of -0.159 ± 1. With RQVGNHSTYGLFNVQTRLRL the amyloid nucleation score was 2.52 ± 0.079. RRAWGFLVMRVGTDPMMTGI showed an amyloid nucleation score of 0.196 ± 0.37. In the case of RRDSVKCVSARGRISLLVSR, the amyloid nucleation score is reported as 2.8 ± 0.056. Substance RRFLNGFFRVQRLRYRHPFI has an amyloid nucleation score of -0.005 ± 0.63. Substance RRGHVL has an amyloid nucleation score of 1.82 ± 0.21. For RRGKFEAANSWGD, the amyloid nucleation score was 0.792 ± 0.53. RRGQEGYRVEWA showed an amyloid nucleation score of 1.22 ± 0.59. With RRIGFDAPDVSRYVALLYWD the amyloid nucleation score was -0.106 ± 0.32. Substance RRIVGFFANDRTLIYLVGYI has an amyloid nucleation score of -0.902 ± 0.49. For RRLAGSTAEKMYMF, the amyloid nucleation score was “inactive”. With RRLFRLVVYFLPNR the amyloid nucleation score was “inactive”. Substance RRLKLRINMVFLEYGFKSKF has an amyloid nucleation score of 3.8 ± 0.046. Substance RRNFGGNLNWIDIVYEHVCL has an amyloid nucleation score of 0.09 ± 0.33. RRRHLGFGKSVEVE gave an amyloid nucleation score of -0.549 ± 0.34. For RRSGGPGEDGGSYERQFTSR, the amyloid nucleation score was 0.95 ± 0.32. Substance RRSYFFLVTFTLDVRDMVCF has an amyloid nucleation score of 1.77 ± 0.18. Work on RRTSYLCWFAGYFGLI yielded an amyloid nucleation score of -0.295 ± 0.45. In the case of RRVNFMKVTFNLKVILFRWS, the amyloid nucleation score is reported as -1.52 ± 1.1. For RRWYYFIEWRKYYQNRTVDQ, the amyloid nucleation score was -0.321 ± 0.8. Substance RRYGKW has an amyloid nucleation score of 1.67 ± 0.41. In the case of RSERPFAWVMALTFTCAGGL, the amyloid nucleation score is reported as 3.47 ± 0.11. In the case of RSFSSPRIILYVKLLVSLYG, the amyloid nucleation score is reported as -0.783 ± 0.25. With RSGVL the amyloid nucleation score was 4.24 ± 0.066. In the case of RSHATFRSSSLIPGVEV, the amyloid nucleation score is reported as 0.409 ± 0.23. Work on RSHVVH yielded an amyloid nucleation score of 1.18 ± 0.68. Work on RSILEM yielded an amyloid nucleation score of -0.302 ± 0.61. Work on RSKHQKRSALCYFESGVTAV yielded an amyloid nucleation score of 0.663 ± 0.37. RSMDPCRLLSELIRRT gave an amyloid nucleation score of 0.938 ± 0.32. In the case of RSQGLWMHAGPSFSVGYPFG, the amyloid nucleation score is reported as 3.9 ± 0.085. RSSRW showed an amyloid nucleation score of 2.82 ± 0.1. With RSSSVVEARGESST the amyloid nucleation score was 7.106 ± 0.041. Work on RSSTLNRRKNKGGSTNVDCL yielded an amyloid nucleation score of 0.355 ± 0.56. In the case of RSTQLNSGPTANK, the amyloid nucleation score is reported as 1.21 ± 0.41. In the case of RSVPYSLCSMQLCTFHFEHS, the amyloid nucleation score is reported as 8.384 ± 0.028. RTALLP gave an amyloid nucleation score of 1.58 ± 0.52. RTDFMHTIFLPCRGHGMSWF gave an amyloid nucleation score of 0.91 ± 0.35. Work on RTDRSYRGLKPVVLVTQWGG yielded an amyloid nucleation score of -0.106 ± 0.63. For RTIYFFLSWHFGSFIKFLKL, the amyloid nucleation score was “inactive”. Work on RTLWATNVRLKNLHVFIMVM yielded an amyloid nucleation score of 0.147 ± 0.8. With RTPFEDKVSIGDDSRSRADL the amyloid nucleation score was 0.414 ± 0.41. Work on RTRSSYGVVLKIRKWCPEVA yielded an amyloid nucleation score of 1.18 ± 0.61. With RTSRVKVR the amyloid nucleation score was 4.13 ± 0.074. RTVGLSHIIICN showed an amyloid nucleation score of 0.089 ± 0.5. For RTVYRFNVRI, the amyloid nucleation score was 0.291 ± 0.27. For RTVYYHQFPGSGFVYVSGFS, the amyloid nucleation score was -0.324 ± 1.1. RTWAFFKAVWGIVDRTTLSN showed an amyloid nucleation score of -1.13 ± 0.62. For RVDLVDSSICADANLLG, the amyloid nucleation score was 1.17 ± 0.26. RVFKDTRRIG showed an amyloid nucleation score of -0.545 ± 1. RVFNLLYVLNWNAKSLSWMS showed an amyloid nucleation score of 4.32 ± 0.11. Substance RVGACRMVRHYVGTWVQQLL has an amyloid nucleation score of 0.246 ± 1.1. RVGTLSWTRAFVFLGYGMVQ showed an amyloid nucleation score of -0.044 ± 0.48. Work on RVIWRQWYNTL yielded an amyloid nucleation score of 1.61 ± 0.19. RVIWSPSRDRSSWFTESEYH showed an amyloid nucleation score of -0.278 ± 0.36. For RVLKLCRLCHFKYLTSEAGV, the amyloid nucleation score was -0.309 ± 0.34. RVQVPLGRAGTRISRSGKIW showed an amyloid nucleation score of 0.805 ± 0.43. RVRSSLVDLASVGSILLTAR gave an amyloid nucleation score of -0.264 ± 0.41. RVSTNGFVSQPMRWYVIVDS gave an amyloid nucleation score of -0.142 ± 0.25. RVTYDFFILWC showed an amyloid nucleation score of 4.465 ± 0.044. RVYLFLELIRALSFRTNHCG gave an amyloid nucleation score of -0.245 ± 0.76. In the case of RVYMWLWIGWCRIG, the amyloid nucleation score is reported as 0.58 ± 0.51. For RWAFHCKSRDVFNMRKL, the amyloid nucleation score was “inactive”. RWITSAY gave an amyloid nucleation score of 0.709 ± 0.62. Work on RWQCLVEHMRSANLGVRRGP yielded an amyloid nucleation score of 0.074 ± 0.41. In the case of RWSGPGCTLSTGMWTFIPQV, the amyloid nucleation score is reported as -0.145 ± 0.76. With RWTWNSEVRNLRIFASYPGC the amyloid nucleation score was -0.418 ± 1.1. Work on RWYRRCLYT yielded an amyloid nucleation score of 0.162 ± 0.37. In the case of RYAQGRRWSYRLNRCLVGRC, the amyloid nucleation score is reported as 1.81 ± 0.27. RYAYLFGPGRCWMFLSVFPY gave an amyloid nucleation score of 4.2 ± 0.069. For RYKWFNKWYTCWYSRFKFYV, the amyloid nucleation score was -1.13 ± 0.26. With RYLETYHSHACVSFTERN the amyloid nucleation score was 0.606 ± 0.45. For RYMGGIWKSIRTS, the amyloid nucleation score was 0.061 ± 0.21.
